Measured values published in patent US20150147342A1 (published 2015).
Substitutions are numbered along the chain they refer to. One block for each binder: values may come before it.

Key:
Mouse Ang-2FD-hFc = target: T1, Mouse Ang-2FD-hFc (mouse (Mus musculus)); assay: ELISA, 16.67 nM antibody + 8 nM mouse Ang-2FD-hFc, on coated hTie-2-mFc (competitor)
T1 construct: Order of the pieces follows the name; also called Dimeric Mouse Ang-2FD
Protocol: (§1) Tie-2 is a natural receptor for Ang-2. Anti-Ang-2 antibodies were tested for their ability to block Ang-2 binding to human Tie-2 (hTie-2). hTie-2-mFc (a chimeric construct consisting of human Tie-2 conjugated to mouse IgG; SEQ ID NO:525) was coated onto 96-well plates at a concentration of 2 μg/ml and incubated overnight followed by washing four times in wash buffer (PBS with 0.05% Tween-20). The plate was then blocked with PBS (Irvine Scientific, Santa Ana, Calif.) containing 0.5% BSA (Sigma-Aldrich Corp., St. Louis, Mo.) for one hour at room temperature. In a separate plate, purified anti-Ang-2 antibodies, at a starting concentration of 50 nM, were serially diluted by a factor of three across the plate. […] The antibody/Ang-2FD-Fc mixture was then added to the plate containing hTie-2-mFc and incubated for one hour at room temperature.

Monkey Ang-2FD-hFc = target: T2, Monkey Ang-2FD-hFc (monkey (Macca fascicularis)); assay: ELISA, 16.67 nM antibody + 2 nM monkey Ang-2FD-hFc, on coated hTie-2-mFc (competitor)
T2 construct: Order of the pieces follows the name; also called Dimeric Monkey Ang-2FD
Protocol: as §1

Human Ang-2FD-hFc = target: T3, Human Ang-2FD-hFc (human); assay: ELISA, 16.67 nM antibody + 2 nM human Ang-2FD-hFc, on coated hTie-2-mFc (competitor)
T3 construct: Order of the pieces follows the name (Ang-2FD, then hFc); also called Dimeric Human Ang-2FD; human Ang-2FD protein conjugated to human IgG
Protocol: as §1

[1] = target: T4, Dimeric fibrinogen-like domain of mouse (Mus musculus) Ang-2 conjugated to human IgG1 (mouse (Mus musculus)); assay: SPR, antibody captured on anti-human kappa, 37 C
T4 construct: also called Dimeric Mouse Ang-2FD; Mouse Ang-2FD-hFc
Protocol: (§2) Additional binding experiments were conducted using selected anti-Ang-2 antibodies at two different temperatures to further assess cross-species affinity. Each selected antibody or control construct was captured at a flow rate of 40 μL/min for 1 minute on a goat anti-human kappa polyclonal antibody surface created through direct chemical coupling to a BIACORE™ chip to form a captured antibody surface.

[2] = target: T5, Dimeric fibrinogen-like domain of monkey (Macca fascicularis) Ang-2 conjugated to human IgG1 (monkey (Macca fascicularis)); assay: SPR, antibody captured on anti-human kappa, 37 C
T5 construct: also called Dimeric Monkey Ang-2FD; Monkey Ang-2FD-hFc
Protocol: as §2

[3] = target: T4, Dimeric fibrinogen-like domain of mouse …; assay: SPR, antibody captured on anti-human kappa, 25 C
Protocol: as §2

[4] = target: T5, Dimeric fibrinogen-like domain of …; assay: SPR, antibody captured on anti-human kappa, 25 C
Protocol: as §2

[5] = target: T4, Dimeric fibrinogen-like domain of mouse …; assay: SPR, hIgG1 antibody captured, room temp
Protocol: (§3) Antibody was captured on a goat anti-mouse IgG polyclonal antibody surface, a goat anti-human κ polyclonal antibody (Southern Biotech, Birmingham, Ala.) surface or a goat anti-human IgG polyclonal antibody (Jackson Immuno Research Lab, West Grove, Pa.) surface created through direct amine coupling to a BIACORE™ CM5 sensor chip to form a captured antibody surface. […] Antigen-antibody binding and dissociation were monitored in real time at room temperature. Kinetic analysis was performed to calculate KD and half-life of antigen/antibody complex dissociation.
(§4) The above experiment was repeated using selected purified anti-Ang-2 antibodies cloned onto human IgG1.

[6] = target: T6, Dimeric fibrinogen-like domain of human Ang-2 conjugated to human IgG1 (human); assay: SPR, hIgG1 antibody captured, room temp
T6 construct: also called Dimeric Human Ang-2FD; Human Ang-2FD-hFc
Protocol: as §3, §4

[7] = target: T5, Dimeric fibrinogen-like domain of …; assay: SPR, hIgG1 antibody captured, room temp
Protocol: as §3, §4

Percent Blocking of Ang-2FD Binding to Tie-2 (Mouse Ang-2FD-hFc): 97.1% | Percent Blocking of Ang-2FD Binding to Tie-2 (Monkey Ang-2FD-hFc): 96.6% | Percent Blocking of Ang-2FD Binding to Tie-2 (Human Ang-2FD-hFc): 96.6%
B1: H1H724N (antibody, V domains shown)
VH: QVQLVESGGGVVQPGRSLRLSCAASGFTLSNYGMHWVRQAPGKGLEWVAVIWHDGSNTYYADSVKGRFTISRDNSKNTLYLQMNSLRAEDTAVYYCTREGLDFWSGYYPNWFDPWGQGTLVTVSS
VL: DIQMTQSPSSLSASVGDRVTITCRASQGIRNDLGWYQQKPGKAPKRLIYAASNLQGGVPSRFSGSGSGTEFTLTISSLQPEDFAAYYCLQHNIYPLTFGGGTKVEIK

Kd [1]: 215 pM | T1/2 [1]: 0.433 h | Kd [2]: 320 pM | T1/2 [2]: 0.183 h | Kd [3]: 385 pM | T1/2 [3]: 0.55 h | Kd [4]: 244 pM | T1/2 [4]: 0.4 h | T1/2 [5]: 1.92 h | Kd [6]: 114 pM | T1/2 [6]: 2.12 h | Kd [7]: 346 pM | T1/2 [7]: 2.73 h
B4: H1H744N (antibody, V domains shown)
VH: QVQLVQSGVEVKKPGASVKVSCKTSGYTFSNNGFSWVRQAPGQGLEWLGWISGYNGNTNYAQKFQGRVTMTTDTSTSTAYMELRTLRSDDTAVYYCARDQDYSNFHWLDPWGQGTLVTVAS
VL: DIQMTQSPSSVSASVGDRVIITCRASQGLSSWLAWYQQKPGTAPKLLIHSASSLQTGVPSRFSGSGSGTEFALTINSLQPEDFGTYYCQQANSFPLTFGGGTRVEIK

Percent Blocking of Ang-2FD Binding to Tie-2 (Mouse Ang-2FD-hFc): 97.6% | Percent Blocking of Ang-2FD Binding to Tie-2 (Monkey Ang-2FD-hFc): 96.2% | Percent Blocking of Ang-2FD Binding to Tie-2 (Human Ang-2FD-hFc): 97.9%
B5: H1H744N (antibody, V domains shown)
VH: B4 VH
VL: B4 VL

Percent Blocking of Ang-2FD Binding to Tie-2 (Mouse Ang-2FD-hFc): 95.9% | Percent Blocking of Ang-2FD Binding to Tie-2 (Monkey Ang-2FD-hFc): 99.8% | Percent Blocking of Ang-2FD Binding to Tie-2 (Human Ang-2FD-hFc): 97.1%
B8: H1H706P (antibody, V domains shown)
VH: QVQLVESGGGVVQPGRSLRLSCAASGFTFSSYGMHWVRQAPDKGLEWVAVKWDDGSNKYYADSVKGRFTISRDNSKNTLYLQMNSLRAEDTAVYYCAREGPYDFYSGYGAFDIWGQGTMVTVSS
VL: DIQMTQSPSSLSASVGDRVTITCRASQGISNYLAWFQQKPGKAPKSLIYAASSLQSGVPSKFSGSGSGTDFTLTISSLQPEDFATYYCQQYNSYPRTFGQGTKVEIK
notes: Fully human antibody, human IgG1

Percent Blocking of Ang-2FD Binding to Tie-2 (Mouse Ang-2FD-hFc): 93.8% | Percent Blocking of Ang-2FD Binding to Tie-2 (Human Ang-2FD-hFc): 95.1%
B9: H1H707P (antibody, V domains shown)
VH: B8 VH
VL: not shown
notes: as for B8

The next lines start with the binder.

B2: H1H690P (antibody, V domains shown)
VH: EVQLVESGGGLVQPGESLRLSCAASGFTFSSYAMSWVRQGPGKGLEWVSSITGSGDTTYYADSVKGRFTISRDNSKNTLYLHMNSLRAEDTAVYYCAKDFLDYSTYLAFDLWGQGTMVTVSS
VL: EIVLTQSPATLSLSPGERATLSCRASQSVSSYLTWYQQKPGQAPRLLSYDASNRATGIPARFSGSGSGTDFTLTISSLEPEDFAVYYCQQRSNWPLTFGGGTKVEIK
notes: as for B8
Percent Blocking of Ang-2FD Binding to Tie-2 (Mouse Ang-2FD-hFc): 98% | Percent Blocking of Ang-2FD Binding to Tie-2 (Monkey Ang-2FD-hFc): 99.6% | Percent Blocking of Ang-2FD Binding to Tie-2 (Human Ang-2FD-hFc): 97.2%

B3: H1H704P (antibody, V domains shown)
VH: QVQLVESGGDVVQPGRSLRLSCAASGFTFSSYGMHWVRQAPGKGLEWVAIIWYDGSNKYYADSVKGRFTISRDNSKNTLYLQMNSLRVEDTAVYSCARDFSISSRHFDYWGQGTLVTVSS
VL: DIQMTQSPSSLSASVGDRVTITCRASQAINNYLAWFQQKPGKAPKSLIYATSNLQSGVPSQFSGSGSGTDYTLTISSLQPEDFATYYCQQYYIYPITFGQGTRLEIK
notes: as for B8
Percent Blocking of Ang-2FD Binding to Tie-2 (Mouse Ang-2FD-hFc): 41.8% | Percent Blocking of Ang-2FD Binding to Tie-2 (Human Ang-2FD-hFc): 97%

B6: H1H685P (antibody, V domains shown)
VH: EVQLVESGGGLVQPGGSLRLSCAASGFTFSSYDIHWVRQATGKGLEWVSAIGPAGDTYYPGSVKGRFTISRENAKNSLYLQMNSLRAGDTAVYYCARGLITFGGLIAPFDYWGQGTLVTVSS
VL: EIVLTQSPGTLSLSPGERATLSCRASQSVSSTYLAWYQQKPGQAPRLLIYGASSRATGIPDRFSGSGSGTDFTLTISRLEPEDFAVYYCQHYDNSQTFGQGTKVEIK
notes: also called mAb1
Kd [1]: 93.9 pM | T1/2 [1]: 1.07 h | Kd [3]: 65.1 pM | T1/2 [3]: 3.47 h | Kd [5]: 148 pM | T1/2 [5]: 2.14 h

B7: H1H691P (antibody, V domains shown)
VH: EVQLVESGGGLVQPGRSLRLSCAASGFTFDDYAMHWVRQAPGKGLEWVSGISWNSGDIGYADSVKGRFTISRDNAKNSLYLQMNSLRAQDTALYYCAKAYGDYYYFYGMDVWGQGTTVTVS
VL: B6 VL with T32S, Y50F, G51S, H91Q, Q96L, Q100G
notes: as for B8
Percent Blocking of Ang-2FD Binding to Tie-2 (Mouse Ang-2FD-hFc): 96.7% | Percent Blocking of Ang-2FD Binding to Tie-2 (Monkey Ang-2FD-hFc): 99.8% | Percent Blocking of Ang-2FD Binding to Tie-2 (Human Ang-2FD-hFc): 97.4%
